From US20210246166A1 (Bayer, published 2021)
Numbered stars: 1 amine (or outer) side, 2 acyl side, 3 side chain; on linkers, the order of the positions; unused ones are H or OH. Bridge positions count the residues as written; N and C are the ends. Square brackets hold non-standard residues; d marks the D form. Ends that are not written are not given here. * marks the point of attachment. X17 = 2‑((1S,2S)-1-(Amino)-2-methylbutyl)‑1,3‑oxazole‑4‑carboxylic acid, CC[C@H](C)[C@H](N[*:1])c1nc(C(=O)[*:2])co1; (3-Chloro-Ph)G = 3-chlorophenylglycine, O=C([C@@H](N[*:1])c1cccc(Cl)c1)[*:2]; cPrCO(1-aminomethyl) = O=C(C1(CN[*:1])CC1)[*:2]; Oic = O=C(O)[C@@H]1C[C@@H]2CCCC[C@@H]2N1; Phe(3-Br) = N[C@@H](Cc1cccc(Br)c1)C(=O)O; Cyclobutanecarbonyl = O=C(C1CCC1)*; tBuAla = CC(C)(C)C[C@H](N)C(=O)O; Pen = CC(C)(S)[C@H](N)C(=O)O; NMeC = CN[C@@H](CS)C(=O)O; PEG3 = NCCOCCOCCOCCC(=O)O; Pip = O=C(O)[C@@H]1CCCCN1; Orn = NCCC[C@H](N)C(=O)O; PEG2 = NCCOCCOCCC(=O)O; Sar = CNCC(=O)O

T1: recombinant human MASP1 active protease (amino acids 297-699, C-terminal His Tag) (human, UniProt P48740 297-699)
T1 sequence: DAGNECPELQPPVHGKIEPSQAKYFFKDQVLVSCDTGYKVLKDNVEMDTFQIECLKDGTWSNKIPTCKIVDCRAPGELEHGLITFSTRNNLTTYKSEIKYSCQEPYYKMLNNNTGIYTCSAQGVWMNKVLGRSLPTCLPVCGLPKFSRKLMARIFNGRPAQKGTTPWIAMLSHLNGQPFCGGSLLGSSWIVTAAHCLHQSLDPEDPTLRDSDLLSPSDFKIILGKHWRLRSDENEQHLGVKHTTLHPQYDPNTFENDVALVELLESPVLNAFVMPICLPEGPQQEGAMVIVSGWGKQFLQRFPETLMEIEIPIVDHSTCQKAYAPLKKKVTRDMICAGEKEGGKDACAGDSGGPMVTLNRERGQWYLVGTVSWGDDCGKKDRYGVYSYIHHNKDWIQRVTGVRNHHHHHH

T2: Recombinant human MASP1 enzyme (fragment corresponding to amino acids 297-699, C-terminal His Tag) (human, UniProt P48740 297-699)
T2 sequence: T1 sequence

T3: recombinant rat MASP1 active protease (amino acids 302-704, C-terminal His Tag) (rat, UniProt Q8CHN8 302-704)
T3 sequence: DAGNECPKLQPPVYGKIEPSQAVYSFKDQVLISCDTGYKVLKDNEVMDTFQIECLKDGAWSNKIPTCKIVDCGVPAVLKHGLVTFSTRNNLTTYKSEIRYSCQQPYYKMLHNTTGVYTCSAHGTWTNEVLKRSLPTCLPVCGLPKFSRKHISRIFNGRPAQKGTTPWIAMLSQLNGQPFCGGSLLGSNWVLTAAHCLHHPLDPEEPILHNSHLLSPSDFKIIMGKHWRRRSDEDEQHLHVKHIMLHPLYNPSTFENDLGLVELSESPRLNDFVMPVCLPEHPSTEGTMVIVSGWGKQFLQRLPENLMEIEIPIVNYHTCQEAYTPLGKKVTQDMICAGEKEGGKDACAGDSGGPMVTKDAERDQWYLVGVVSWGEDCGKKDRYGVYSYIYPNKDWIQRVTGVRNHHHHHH

B1: Example 330: ((3-Bromo)F)-IC+SRS-((tBu)A)-PPI-(Pen)+IPD-NH2 (peptide)
peptide: [Phe(3-Br)]ICSRS[tBuAla]PPI[Pen]IPD-NH2
modifications: disulfide 3-11; N-terminus assumed
SMILES: CC[C@H](C)[C@H](NC(=O)[C@@H](N)Cc1cccc(Br)c1)C(=O)N[C@H]1CSSC(C)(C)[C@@H](C(=O)N[C@H](C(=O)N2CCC[C@H]2C(=O)N[C@@H](CC(=O)O)C(N)=O)[C@@H](C)CC)NC(=O)[C@H]([C@@H](C)CC)NC(=O)[C@@H]2CCCN2C(=O)[C@@H]2CCCN2C(=O)[C@H](CC(C)(C)C)NC(=O)[C@H](CO)NC(=O)[C@H](CCCNC(=N)N)NC(=O)[C@H](CO)NC1=O
B2: Example 401: GIC+SRSL-(Pip)-PIC+ID-OH (peptide)
peptide: GICSRSL[Pip]PICID-OH
modifications: disulfide 3-11; N-terminus assumed
SMILES: CC[C@H](C)[C@H](NC(=O)CN)C(=O)N[C@H]1CSSC[C@@H](C(=O)N[C@H](C(=O)N[C@@H](CC(=O)O)C(=O)O)[C@@H](C)CC)NC(=O)[C@H]([C@@H](C)CC)NC(=O)[C@@H]2CCCN2C(=O)[C@@H]2CCCCN2C(=O)[C@H](CC(C)C)NC(=O)[C@H](CO)NC(=O)[C@H](CCCNC(=N)N)NC(=O)[C@H](CO)NC1=O
B3: Example 394: ((N-Me)G)-IC+SRSLPPIC+IPN-OH (peptide)
peptide: [Sar]ICSRSLPPICIPN-OH
modifications: disulfide 3-11; N-terminus assumed
SMILES: CC[C@H](C)[C@H](NC(=O)CNC)C(=O)N[C@H]1CSSC[C@@H](C(=O)N[C@H](C(=O)N2CCC[C@H]2C(=O)N[C@@H](CC(N)=O)C(=O)O)[C@@H](C)CC)NC(=O)[C@H]([C@@H](C)CC)NC(=O)[C@@H]2CCCN2C(=O)[C@@H]2CCCN2C(=O)[C@H](CC(C)C)NC(=O)[C@H](CO)NC(=O)[C@H](CCCNC(=N)N)NC(=O)[C@H](CO)NC1=O
B4: AIC+SRSLPP-((3-Chloro-Ph)G)-C+IPD-NH2 (peptide)
peptide: AICSRSLPP[(3-Chloro-Ph)G]CIPD-NH2
modifications: disulfide 3-11; N-terminus assumed
SMILES: CC[C@H](C)[C@H](NC(=O)[C@H](C)N)C(=O)N[C@H]1CSSC[C@@H](C(=O)N[C@H](C(=O)N2CCC[C@H]2C(=O)N[C@@H](CC(=O)O)C(N)=O)[C@@H](C)CC)NC(=O)[C@H](c2cccc(Cl)c2)NC(=O)[C@@H]2CCCN2C(=O)[C@@H]2CCCN2C(=O)[C@H](CC(C)C)NC(=O)[C@H](CO)NC(=O)[C@H](CCCNC(=N)N)NC(=O)[C@H](CO)NC1=O
B5: (Orn)-IC+SRS-((tBu)A)-PPI-((N-Me)C)+(2-[(1S,2S)-1-(Amino)-2-methylbutyl]-1,3-oxazole-4-carboxylic acid)-D-NH2 (peptide)
peptide: [Orn]ICSRS[tBuAla]PPI[NMeC][X17]D-NH2
modifications: disulfide 3-11; N-terminus assumed
SMILES: CC[C@H](C)[C@H](NC(=O)[C@@H](N)CCCN)C(=O)N[C@H]1CSSC[C@@H](C(=O)N[C@H](c2nc(C(=O)N[C@@H](CC(=O)O)C(N)=O)co2)[C@@H](C)CC)N(C)C(=O)[C@H]([C@@H](C)CC)NC(=O)[C@@H]2CCCN2C(=O)[C@@H]2CCCN2C(=O)[C@H](CC(C)(C)C)NC(=O)[C@H](CO)NC(=O)[C@H](CCCNC(=N)N)NC(=O)[C@H](CO)NC1=O
B6: (Cyclobutanecarboxylic)-IC+SRS-((tBu)A)-PPI-((N-Me)C)+I-NH2 (peptide)
peptide: Cyclobutanecarbonyl-ICSRS[tBuAla]PPI[NMeC]I-NH2
modifications: disulfide 2-10
SMILES: CC[C@H](C)[C@H](NC(=O)[C@@H]1CSSC[C@H](NC(=O)[C@@H](NC(=O)C2CCC2)[C@@H](C)CC)C(=O)N[C@@H](CO)C(=O)N[C@@H](CCCNC(=N)N)C(=O)N[C@@H](CO)C(=O)N[C@@H](CC(C)(C)C)C(=O)N2CCC[C@H]2C(=O)N2CCC[C@H]2C(=O)N[C@@H]([C@@H](C)CC)C(=O)N1C)C(N)=O
B7: IC+SRS-((tBu)A)-PPI-(Pen)+IPP-NH2 (peptide)
peptide: ICSRS[tBuAla]PPI[Pen]IPP-NH2
modifications: disulfide 2-10; N-terminus assumed
SMILES: CC[C@H](C)[C@H](N)C(=O)N[C@H]1CSSC(C)(C)[C@@H](C(=O)N[C@H](C(=O)N2CCC[C@H]2C(=O)N2CCC[C@H]2C(N)=O)[C@@H](C)CC)NC(=O)[C@H]([C@@H](C)CC)NC(=O)[C@@H]2CCCN2C(=O)[C@@H]2CCCN2C(=O)[C@H](CC(C)(C)C)NC(=O)[C@H](CO)NC(=O)[C@H](CCCNC(=N)N)NC(=O)[C@H](CO)NC1=O
B8: Example 21: AIC+SRS-((tBu)A)-PPI-(Pen)+IPe-NH2 (peptide)
peptide: AICSRS[tBuAla]PPI[Pen]IP[dE]-NH2
modifications: disulfide 3-11; N-terminus assumed
SMILES: CC[C@H](C)[C@H](NC(=O)[C@H](C)N)C(=O)N[C@H]1CSSC(C)(C)[C@@H](C(=O)N[C@H](C(=O)N2CCC[C@H]2C(=O)N[C@H](CCC(=O)O)C(N)=O)[C@@H](C)CC)NC(=O)[C@H]([C@@H](C)CC)NC(=O)[C@@H]2CCCN2C(=O)[C@@H]2CCCN2C(=O)[C@H](CC(C)(C)C)NC(=O)[C@H](CO)NC(=O)[C@H](CCCNC(=N)N)NC(=O)[C@H](CO)NC1=O
B9: Example 32: (ACMP)-IC+SRS-((tBu)A)-PPI-(Pen)+IPD-NH2 (peptide)
peptide: [cPrCO(1-aminomethyl)]ICSRS[tBuAla]PPI[Pen]IPD-NH2
modifications: disulfide 3-11; N-terminus assumed
SMILES: CC[C@H](C)[C@@H]1NC(=O)[C@@H]2CCCN2C(=O)[C@@H]2CCCN2C(=O)[C@H](CC(C)(C)C)NC(=O)[C@H](CO)NC(=O)[C@H](CCCNC(=N)N)NC(=O)[C@H](CO)NC(=O)[C@@H](NC(=O)[C@@H](NC(=O)C2(CN)CC2)[C@@H](C)CC)CSSC(C)(C)[C@@H](C(=O)N[C@H](C(=O)N2CCC[C@H]2C(=O)N[C@@H](CC(=O)O)C(N)=O)[C@@H](C)CC)NC1=O
B10: Example 468: ((N-Me)G)-IC+SRSLP-(Oic)-I-(Pen)+IP-(PEG2(13 atoms))-OH (peptide)
peptide: [Sar]ICSRSLP[Oic]I[Pen]IP[PEG3]-OH
modifications: disulfide 3-11; N-terminus assumed
SMILES: CC[C@H](C)[C@H](NC(=O)CNC)C(=O)N[C@H]1CSSC(C)(C)[C@@H](C(=O)N[C@H](C(=O)N2CCC[C@H]2C(=O)NCCOCCOCCOCCC(=O)O)[C@@H](C)CC)NC(=O)[C@H]([C@@H](C)CC)NC(=O)[C@@H]2C[C@@H]3CCCC[C@@H]3N2C(=O)[C@@H]2CCCN2C(=O)[C@H](CC(C)C)NC(=O)[C@H](CO)NC(=O)[C@H](CCCNC(=N)N)NC(=O)[C@H](CO)NC1=O

molecular target: T1, recombinant human MASP1 active protease …; test: cell-based or functional assay

Binder	human MASP1 IC50
B1	24 nM
AICSRSLP[Oic]I[Pen]IPD-OH (disulfide 3-11; also: choline salt) [Example 432: AIC+SRSLP-(Oic)-I-(Pen)+IPD-OH (choline-salt)]	2.7 nM
AICSRSLP[Oic]I[Pen]IPD-OH (disulfide 3-11; also: sodium salt) [Example 431: AIC+SRSLP-(Oic)-I-(Pen)+IPD-OH (sodium salt)]	2 nM
B2	56 nM
B3	52 nM

molecular target: Recombinant human MASP2 enzyme (fragment corresponding to amino acids 297-686, C-terminal His Tag) (human, UniProt O00187 297-686); test: cell-based or functional assay
Sequence (O00187 other isoform, or with tags, fused parts or gaps limits assumed): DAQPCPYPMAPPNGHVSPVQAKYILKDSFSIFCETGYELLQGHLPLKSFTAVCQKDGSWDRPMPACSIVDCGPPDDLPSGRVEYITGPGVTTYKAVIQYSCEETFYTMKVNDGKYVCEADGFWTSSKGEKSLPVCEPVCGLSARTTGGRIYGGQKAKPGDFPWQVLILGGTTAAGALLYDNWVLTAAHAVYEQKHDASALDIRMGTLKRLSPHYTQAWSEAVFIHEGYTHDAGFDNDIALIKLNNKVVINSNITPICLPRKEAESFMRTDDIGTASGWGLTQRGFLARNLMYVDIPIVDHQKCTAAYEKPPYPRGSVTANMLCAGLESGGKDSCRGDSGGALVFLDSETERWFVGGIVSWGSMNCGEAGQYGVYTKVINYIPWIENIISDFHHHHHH

Binder	human MASP2 IC50
B4	1400 nM
B5	910 nM
B6	19 nM
B7	500 nM

molecular target: T2, Recombinant human MASP1 enzyme …; test: cell-based or functional assay

Binder	human MASP1 IC50
B4	19 nM
B5	18 nM
B6	18 nM
B7	19 nM

molecular target: recombinant rat MASP2 active protease (amino acids 296-685, C-terminal His Tag) (rat, UniProt Q9JJS8 296-685); test: cell-based or functional assay
Sequence (Q9JJS8 other isoform, or with tags, fused parts or gaps limits assumed): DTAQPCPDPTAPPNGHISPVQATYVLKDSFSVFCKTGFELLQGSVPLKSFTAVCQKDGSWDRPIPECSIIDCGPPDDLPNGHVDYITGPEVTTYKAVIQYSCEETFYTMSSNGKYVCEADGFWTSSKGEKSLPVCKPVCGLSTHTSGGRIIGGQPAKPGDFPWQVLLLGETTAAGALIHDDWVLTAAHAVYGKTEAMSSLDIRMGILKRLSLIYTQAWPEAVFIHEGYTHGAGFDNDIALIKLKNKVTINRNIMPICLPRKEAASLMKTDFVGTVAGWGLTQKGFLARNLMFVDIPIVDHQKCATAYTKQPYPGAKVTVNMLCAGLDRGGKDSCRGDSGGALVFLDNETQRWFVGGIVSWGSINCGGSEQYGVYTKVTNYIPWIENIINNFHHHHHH

Binder	rat MASP2 IC50
AICSRSLP[Oic]I[Pen]IPD-OH (disulfide 3-11; also: TFA salt) [Example 13: AIC+SRSLP-(Oic)-I-(Pen)+IPD-OH]	16.4 nM
B8	40 nM
[Sar]ICSRS[tBuAla]PPI[Pen]IP-{PEG2-NH2} (disulfide 3-11; also: HCl salt) [Example 39: ((N-Me)G)-IC+SRS-((tBu)A)-PPI-(Pen)+IP-(PEG1(10 atoms))-NH2 (HCl salt)]	37 nM
AICSRSLP[Oic]I[Pen]IPD-OH (disulfide 3-11) [Example 5: AIC+SRSLP-(Oic)-I-(Pen)+IPD-OH (salt free form)]	49 nM
AICSRSLP[Oic]I[Pen]IPD-OH (disulfide 3-11; also: HCl salt) [Example 29: AIC+SRSLP-(Oic)-I-(Pen)+IPD-OH (HCl salt)]	17.4 nM
[Sar]ICSRSLP[Oic]I[Pen]IP-{PEG3-NH2} (disulfide 3-11) [Example 7: ((N-Me)G)-IC+SRSLP-(Oic)-I-(Pen)+IP-(PEG2(13 atoms))-NH2]	16 nM
B9	48 nM
B10	80 nM

molecular target: T3, recombinant rat MASP1 active protease …; test: cell-based or functional assay

Binder	rat MASP1 IC50
B8	67 nM
[Sar]ICSRS[tBuAla]PPI[Pen]IP-{PEG2-NH2} (disulfide 3-11; also: HCl salt) [Example 39: ((N-Me)G)-IC+SRS-((tBu)A)-PPI-(Pen)+IP-(PEG1(10 atoms))-NH2 (HCl salt)]	49 nM
[Sar]ICSRSLP[Oic]I[Pen]IP-{PEG3-NH2} (disulfide 3-11) [Example 7: ((N-Me)G)-IC+SRSLP-(Oic)-I-(Pen)+IP-(PEG2(13 atoms))-NH2]	30 nM
B9	56 nM
